Data taken from the supplement of paper PMC12455559.

Tests used:
[1] = melting temperature (DSF); higher = more thermostable
In short: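 After expression in E. coli C41(DE3), the candidate enzymes were bound to nickel beads and released with SUMO protease. Their melting temperature was found by differential scanning fluorimetry with Sypro Orange on a Bio-Rad CFX96. Each sealed PCR plate well held 45 μL enzyme (0 to 0.3 mg/mL) plus 5 μL 5X dye, and fluorescence was read for 250 cycles from 25 °C at 0.3 °C per cycle (ramp 0.3 °C/s).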

[2] = PET hydrolysis, aromatic products released after 48 h (umol product/mg enzyme); higher = more PET depolymerization activity
In short: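 Candidate enzymes, made tagless by SUMO cleavage and purified on nickel beads, were added at 5 μg (50 μL) to 3.5 mg of either amorphous PET film or crystalline PET powder in 450 μL buffer. The sealed plates stood unshaken for 48 h at 40 or 60 °C. Activity on PET is the aromatic product found in the supernatant per mg enzyme, read at 260 and 280 nm against buffer blanks.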

[3] = purified protein yield per well (BCA); higher = higher soluble expression
In short: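 On an OT-2 robot, lysed cells were processed by binding protein to Ni-charged magnetic beads and releasing it with SUMO protease. Expression took place in E. coli C41(DE3), in 2 mL autoinduction cultures with 100 µg/mL kanamycin, for 2 h at 37 °C followed by 40 h at 18 °C. The Pierce Rapid Gold BCA kit was used to quantify purified protein yield in each well, with values under 25 ug (0.1 mg/mL) below the detection threshold.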

[4] = substrate: cryPow, 40 °C, pH 4.5
[5] = substrate: cryPow, 40 °C, pH 5.5
[6] = substrate: cryPow, 40 °C, pH 6.5
[7] = substrate: cryPow, 40 °C, pH 7.5
[8] = substrate: cryPow, 60 °C, pH 4.5
[9] = substrate: cryPow, 60 °C, pH 5.5
[10] = substrate: cryPow, 60 °C, pH 6.5
[11] = substrate: cryPow, 60 °C, pH 7.5
[12] = substrate: cryPow, 40 °C, pH 8.5
[13] = substrate: cryPow, 60 °C, pH 8.5

Sequence | melting temperature [1] [C] | PET hydrolysis [2, 4] | PET hydrolysis [2, 5] | PET hydrolysis [2, 6] | PET hydrolysis [2, 7] | PET hydrolysis [2, 8] | PET hydrolysis [2, 9] | PET hydrolysis [2, 10] | PET hydrolysis [2, 11] | purified protein yield per well [3] [µg] | PET hydrolysis ([2]; substrate: aFilm, 40 °C, pH 5.5) | PET hydrolysis ([2]; substrate: aFilm, 40 °C, pH 6.5) | PET hydrolysis ([2]; substrate: aFilm, 40 °C, pH 7.5) | PET hydrolysis ([2]; substrate: aFilm, 40 °C, pH 8.5) | PET hydrolysis ([2]; substrate: aFilm, 60 °C, pH 5.5) | PET hydrolysis ([2]; substrate: aFilm, 60 °C, pH 6.5) | PET hydrolysis ([2]; substrate: aFilm, 60 °C, pH 7.5) | PET hydrolysis ([2]; substrate: aFilm, 60 °C, pH 8.5) | PET hydrolysis [2, 12] | PET hydrolysis [2, 13]
AESPYQRGPDPTRESVAASRGTFATAEVSVPAGNGFGGGVIYYPTDTSQGTFGGVAIVPGYTATWAAEGAWMGHWLASFGFVVIGIDTINRNDWDTARGTQLLAALDYLTQRSSVRNRVDANRLAVMGHSMGGGGAMHAALQRPSLKAAIGLAPFSPSQNLTNMRVPTLLVAGQNDTTTTPTSILNLYNGIPATTEKAYLELTGAGHGFPTSANSVMTRKVIPWLKIFVDHDTRYHQFLCPLLDWTGITAYRSSCPLNPPGGPTGSTFSLVGADSGKCVDVPGASRTNGTGLITYTCNGASNQRWTQTAANELRIYDNSKCMEAGTSAGSRAVITSCTGGNGQKWTFNANGTITHAQSGLCLYVNGGSTANQAAVIVWTCHGGSNQVWTRQP [TEP163] | 73 | < 3 | 8 | 8 | 5 | < 3 | < 3 | 3 | < 3 | 148 | – | – | – | – | – | – | – | – | – | –
ADNPYQRGPDPTRASVAAENGPFANTSVSAPTGYGFNGGRIYYPTDTSQGTFGAIAISPGYTALFSAELAWMGPWLASHGFVVIGIETNSRNDFDTARGTQLLAALDYLTQQSPVRDRIDPNRLAVSGHSMGGGGALSAAMRRSSLKAVVGITPYSPSSNLANVQVPAMVISGQADTVVTPSYALGLYNSLPASTESAYLEVAGGDHGFMVGRSNPVLIRTMLPFVKMFVDNDARYSQFLCPLLDNSGVVTYRSTCPLLPPPTATPTPTGTPTPTPTPTVSPTTPPNSANRIVGVQSGRCIDVPNASRDNGTRVQLYDCHGQSNQSWTYTASKQLRVYGDMCLDAGGSGNGAGIQIYSCHSQTNQQWNVNSNGTISGVQSGRCLDVWSTSNGAQVQLYDCHGQTNQQFNLVPLT [TEP167] | 57.1 | < 3 | < 3 | < 3 | < 3 | < 3 | < 3 | < 3 | < 3 | 180 | – | – | – | – | – | – | – | – | – | –
ATNPYQRGPAPTAESISAERGSFAVADSAVSADSVSGFGGGTVYYPTDTSAGKFGAVAIAPGFTANEWSLAWLGPRLASHGFVVFIIDTITTGDQPAQRGDELRAALSYLTTSSPVRDRVDPARLGVMGHSMGGGGALQAAEDDPSIRAVIPMTPYDLDSPSPKVTAPTLIIGAQDDTIAPVAYHARPFYESLTSARAKEYIELRNQSHFAPNYPNATIASASIAWLKRYIDDDQRYQPFACPAQVGSWLISDFRSAC [DP034] | 47.5 | – | < 3 | < 3 | < 3 | – | < 3 | < 3 | < 3 | 180 | < 3 | < 3 | < 3 | < 3 | < 3 | < 3 | < 3 | < 3 | < 3 | < 3
ADNPYQRGPDPTPTSVTAVNGPFANTSVAVPTGYGFNGGRIYYPTDTSQGTFGAIAISPGYTALFSAELAWMGPWLASHGFVVIGIETNSRNDFDTARGTQLLAALDYLTQQSPVRDRVDPNRLAVAGHSMGGGGALSAATRRSSLKAAVGIAPYSPSSNLANDRVPTMIFAGQADTVVTPSYASGLYNSLPATTESVYLEVAGADHGFMVGRSNPVMVRTMLPFVKMFIDNDTRYSQFLCPLMDSSGVVTSRSTCPLLPSDPTTPTPTPTTPDPTPTVPPGSASEIVGTQSGRCIDVPNASRTNGTRVQLYNCNRQTNQAWTYTSNKQLQVYGTMCLDAAGSGNGAAVQIYSCHSGTNQQWNVNSNGTISGVQSGRCLDVWSTSNGAQVQLYDCHGQTNQQFRLAPLG [ESM132] | 56.2 | < 3 | 5 | < 3 | < 3 | < 3 | < 3 | < 3 | < 3 | 144 | – | – | – | – | – | – | – | – | – | –
ADNPYERGPNPTQASIAASRGTFATAEVSVGGGNGFAAAKIYYPTDTSQGTFGAIAIVPGYTATWAAEGAWMGPWLASFGFVVIGIDTLSRNDFDTARGTQLLAALDYLTQRSSVRSRVDASRLAVMGHSMGGGGAISAALRRPSLKAAVGLAPFSPSQGTSGMRVPSMLLAGQRDGTVTPSSVRNLYNAIPATTEKAYLELTGAGHGFPTSANSVMMRKVIPWLKIFVDQDTRYQQFLCPLVDWTGITSYQSSCPLIPGGSTGTTYNLVNSSGKCADVNAASQVNGAALLLWTCHTNPNQRWTETSAKELRVYDNPKCMDAGAAQQGTRVTINSCSGGGSQKWTVNANGTVTNDLSGRCLGAAGGATTDNTPLVVASCDGSPGQQWTKQS [TEP093] | 69.7 | 4 | 12 | 31 | 28 | < 3 | 4 | 7 | 7 | 166 | – | – | – | – | – | – | – | – | – | –
ATGPSSPCTNCTRGPNPTVAALKSNSGPFSTAKFSVSGYLKGFGDSTVYYPTNTTGKMGAIAVIPGYLSYESSIEWWGPRLASHGFVVITMNTNTIYDQPDSRATQLSKALDYVIAQSNSSSSPIAGKVDSTRLGAIGWSMGGGGSLKLSTQRSLNAIIPQAPYYAGSNSFNTIKTPTLILACGVDAVAPVAAHASPFYNKIPNTTPKAFLEIYGGSHFCANSGYPNQDLLGMYGISWMKRFIDFDKRYSQFLCGPNHQADLAISEYRQNCNY [ESM048] | 49.6 | < 3 | < 3 | < 3 | < 3 | – | – | – | – | 48 | – | – | – | – | – | – | – | – | – | –
ASPYERGPNPTTAILEASSGPYSVSSVSVSSLVTGFGGGRIYYPTTTADGTFGGIAISPGFTARWSSLEWLGPRIASHGFVVIGIETNSIYDQPTSRGQQLLAALDYLVNSSSARTRVDRNRLAVAGHSMGGGGTLYAANARPSLQAAVPIAPWNTDKTWGGVQVPTMIIGGESDSVAPVATHAIPFYTSIPASSEKAYLELNNASHFFPQTVNTTMAKSMVSWLKRYVDDDTRYDPWLCPAPSGLSISDYRDTCPA [DP084] | 48.7 | – | < 3 | 3 | 9 | – | < 3 | < 3 | < 3 | 91 | – | – | – | – | – | – | – | – | 11 | < 3
